B1: anti-DENV NS1 IgG2b mouse monoclonal antibody (mAb) 2B7 (antibody, V domains shown)
VH: EVQLQQSGPELVKPGASVKMSCKASGCTLTNCFMHWMKQKPGQDLEWIGYINPYNDMTKYSENFKGKATLTSDKSSSTAFMELSSLTSEDSAVYYCARGYLLRTGCFDYWGQGTTLTVSS
VL: NIVLTQSPASLAVSLGQRATISCRASESVDSYGYSFMHWYQQKPGQPPKVLIYLASNLESGVPARFSGSGSRTDFTLTIDPVEADDAATYYCQQNNENPLTFGAGTKLELKR
B2: 2B7 Fab (Fab, V domains shown)
VH: B1 VH
VL: NIVLTQSPASLAVSLGQRATISCRASESVDSYGYSFMHWYQQKPGQPPKVLIYLASNLESGVPARFSGSGSRTDFTLTIDPVEADDAATYYCQQNNENPLTFGAGTKLELK

Key:
[1] = target: T1, WSLV NS1 (Wesselsbron virus NS1) (Wesselsbron virus, UniProt C5H431 771-1123); assay: ELISA, 2B7 titrated on WSLV NS1, OD450nm
T1 sequence: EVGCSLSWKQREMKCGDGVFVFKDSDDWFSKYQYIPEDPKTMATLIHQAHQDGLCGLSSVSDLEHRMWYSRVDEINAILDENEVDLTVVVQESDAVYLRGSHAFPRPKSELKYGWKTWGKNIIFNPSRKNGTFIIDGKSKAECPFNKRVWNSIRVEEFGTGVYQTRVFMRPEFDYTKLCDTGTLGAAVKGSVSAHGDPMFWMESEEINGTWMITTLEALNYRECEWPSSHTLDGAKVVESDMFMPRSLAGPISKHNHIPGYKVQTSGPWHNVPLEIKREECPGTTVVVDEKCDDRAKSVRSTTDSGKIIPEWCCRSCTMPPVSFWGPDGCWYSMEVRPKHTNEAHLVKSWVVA

[2] = target: T2, recombinant NS1 wing domain (residues 38-151) (Dengue virus 2, UniProt P07564 813-926); assay: direct ELISA on plates coated with recombinant NS1 domains, OD 405 nm
T2 sequence: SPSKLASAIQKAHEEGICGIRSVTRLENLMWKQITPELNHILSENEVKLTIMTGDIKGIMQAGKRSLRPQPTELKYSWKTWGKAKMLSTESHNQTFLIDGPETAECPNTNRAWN

[3] = target: T3, JEV NS1 (Japanese encephalitis virus NS1) (Japanese encephalitis virus, UniProt P0DOH7 795-1146); assay: ELISA, 2B7 titrated on JEV NS1, OD450nm
T3 sequence: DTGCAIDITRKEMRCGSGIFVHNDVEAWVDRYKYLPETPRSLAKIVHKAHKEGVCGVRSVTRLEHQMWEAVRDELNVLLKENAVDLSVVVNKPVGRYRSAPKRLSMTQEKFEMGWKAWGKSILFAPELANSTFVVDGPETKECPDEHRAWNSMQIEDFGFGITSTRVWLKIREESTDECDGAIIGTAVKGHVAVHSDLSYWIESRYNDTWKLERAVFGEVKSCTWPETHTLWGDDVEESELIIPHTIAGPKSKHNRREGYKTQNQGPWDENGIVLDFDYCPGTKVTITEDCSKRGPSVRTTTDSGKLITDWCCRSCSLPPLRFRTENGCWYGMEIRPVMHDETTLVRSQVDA

[4] = target: T4, DENV3 NS1 (Dengue virus 3, UniProt Q6YMS4 774-1125); assay: ELISA, 2B7 titrated on DENV3 NS1, OD450nm
T4 sequence: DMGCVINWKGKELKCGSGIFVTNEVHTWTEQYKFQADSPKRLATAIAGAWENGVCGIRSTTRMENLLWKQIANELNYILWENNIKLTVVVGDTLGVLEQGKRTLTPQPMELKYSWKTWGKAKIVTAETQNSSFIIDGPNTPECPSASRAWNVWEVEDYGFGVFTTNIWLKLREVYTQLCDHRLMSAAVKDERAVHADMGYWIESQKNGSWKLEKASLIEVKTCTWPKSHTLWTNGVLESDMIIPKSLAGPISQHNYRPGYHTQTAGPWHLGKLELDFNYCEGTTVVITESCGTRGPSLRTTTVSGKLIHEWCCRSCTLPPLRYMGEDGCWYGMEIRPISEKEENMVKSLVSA

[5] = target: T5, DENV4 NS1 (Dengue virus 4, UniProt P09866 775-1126); assay: ELISA, 2B7 titrated on DENV4 NS1, OD450nm
T5 sequence: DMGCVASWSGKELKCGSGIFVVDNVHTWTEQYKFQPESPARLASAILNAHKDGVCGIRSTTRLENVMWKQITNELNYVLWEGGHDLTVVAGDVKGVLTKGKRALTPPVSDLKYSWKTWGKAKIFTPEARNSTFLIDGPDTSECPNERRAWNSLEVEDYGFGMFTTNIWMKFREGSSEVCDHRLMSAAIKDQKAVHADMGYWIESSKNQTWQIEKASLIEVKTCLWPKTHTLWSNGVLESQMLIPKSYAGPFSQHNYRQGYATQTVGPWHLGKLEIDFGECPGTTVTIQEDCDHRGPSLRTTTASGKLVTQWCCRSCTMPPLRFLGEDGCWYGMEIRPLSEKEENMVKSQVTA

[6] = target: T6, SLEV NS1 (Saint Louis encephalitis virus NS1) (Saint Louis encephalitis virus, UniProt P09732 790-1141); assay: ELISA, 2B7 titrated on SLEV NS1, OD450nm
T6 sequence: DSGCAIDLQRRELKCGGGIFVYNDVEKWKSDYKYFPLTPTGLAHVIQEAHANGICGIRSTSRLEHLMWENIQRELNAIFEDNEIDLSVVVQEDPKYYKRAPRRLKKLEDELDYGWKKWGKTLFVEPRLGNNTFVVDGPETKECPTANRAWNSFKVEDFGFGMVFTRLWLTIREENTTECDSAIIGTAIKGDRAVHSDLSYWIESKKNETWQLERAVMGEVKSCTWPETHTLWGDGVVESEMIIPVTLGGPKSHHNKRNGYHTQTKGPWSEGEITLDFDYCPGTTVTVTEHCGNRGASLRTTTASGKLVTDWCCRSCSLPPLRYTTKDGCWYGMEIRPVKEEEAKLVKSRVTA

[7] = target: T7, DENV1 NS1 (Dengue virus 1, UniProt P17763 776-1127); assay: ELISA, 2B7 titrated on DENV1 NS1, OD450nm
T7 construct: also called dengue virus serotype 1 NS1
T7 chain: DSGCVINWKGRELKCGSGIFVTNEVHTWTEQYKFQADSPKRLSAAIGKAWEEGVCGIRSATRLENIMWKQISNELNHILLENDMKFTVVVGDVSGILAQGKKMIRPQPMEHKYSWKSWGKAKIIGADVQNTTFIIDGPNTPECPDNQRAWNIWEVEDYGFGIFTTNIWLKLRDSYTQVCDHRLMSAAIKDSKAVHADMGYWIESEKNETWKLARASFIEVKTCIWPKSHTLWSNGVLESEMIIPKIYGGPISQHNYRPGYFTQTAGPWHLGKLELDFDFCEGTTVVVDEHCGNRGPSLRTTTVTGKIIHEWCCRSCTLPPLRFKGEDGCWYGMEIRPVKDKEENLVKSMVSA

[8] = target: T8, USUV NS1 (Usutu virus NS1) (Usutu virus, UniProt Q5WPU5 794-1145); assay: ELISA, 2B7 titrated on USUV NS1, OD450nm
T8 chain: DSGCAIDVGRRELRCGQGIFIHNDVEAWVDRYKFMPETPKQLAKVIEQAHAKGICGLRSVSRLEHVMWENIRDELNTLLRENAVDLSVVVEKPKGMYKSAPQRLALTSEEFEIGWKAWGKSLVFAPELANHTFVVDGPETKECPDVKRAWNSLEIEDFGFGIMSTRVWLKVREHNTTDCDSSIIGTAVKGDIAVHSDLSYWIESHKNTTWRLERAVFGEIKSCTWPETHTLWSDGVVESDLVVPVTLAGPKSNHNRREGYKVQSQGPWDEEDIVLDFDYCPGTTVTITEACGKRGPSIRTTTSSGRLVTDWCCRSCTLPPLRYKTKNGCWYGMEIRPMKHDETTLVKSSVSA

[9] = target: T7, DENV1 NS1; assay: crystal structure 3.3 Å
[10] = target: T2, recombinant NS1 wing domain (residues …); assay: BLI, domains on anti-His tips

| Binder | binding result [1] | binding result [2] | binding result [3] | binding result [4] | binding result [5] | binding result [6] | binding result [7] | binding result [8] | binding result [9] | binding result [10] |
| --- | --- | --- | --- | --- | --- | --- | --- | --- | --- | --- |
| B1 | binds | no binding | binds | binds | binds | binds | binds | binds | – | – |
| B2 | – | – | – | – | – | – | – | – | binds | no binding |
